Our source for the Kd values is publication PMC10904058 (2024).

The experiment deals with FASN of the SPR analysis (UniProt P49327 1-2511). The experiment can be described thus: SPR. In general terms: Surface plasmon resonance follows binding to a sensor surface in real time, without labels.

B1: TRIM56 of the SPR analysis (enzyme)
chain: MVSHGSSPSLLEALSSDFLACKICLEQLRAPKTLPCLHTYCQDCLAQLADGGRVRCPECRETVPVPPEGVASFKTNFFVNGLLDLVKARACGDLRAGKPACALCPLVGGTSTGGPATARCLDCADDLCQACADGHRCTRQTHTHRVVDLVGYRAGWYDEEARERQAAQCPQHPGEALRFLCQPCSQLLCRECRLDPHLDHPCLPLAEAVRARRPGLEGLLAGVDNNLVELEAARRVEKEALARLREQAARVGTQVEEAAEGVLRALLAQKQEVLGQLRAHVEAAEEAARERLAELEGREQVARAAAAFARRVLSLGREAEILSLEGAIAQRLRQLQGCPWAPGPAPCLLPQLELHPGLLDKNCHLLRLSFEEQQPQKDGGKDGAGTQGGEESQSRREDEPKTERQGGVQPQAGDGAQTPKEEKAQTTREEGAQTLEEDRAQTPHEDGGPQPHRGGRPNKKKKFKGRLKSISREPSPALGPNLDGSGLLPRPIFYCSFPTRMPGDKRSPRITGLCPFGPREILVADEQNRALKRFSLNGDYKGTVPVPEGCSPCSVAALQSAVAFSASARLYLINPNGEVQWRRALSLSQASHAVAALPSGDRVAVSVAGHVEVYNMEGSLATRFIPGGKASRGLRALVFLTTSPQGHFVGSDWQQNSVVICDGLGQVVGEYKGPGLHGCQPGSVSVDKKGYIFLTLREVNKVVILDPKGSLLGDFLTAYHGLEKPRVTTMVDGRYLVVSLSNGTIHIFRVRSPDS
Usually Kd stands for the equilibrium constant for the complex coming apart. A higher Kd goes with weaker binding. B1 yielded a Kd of 17 nM.
